Experimental data from US20090142855A1 (published 2009).

Biological target: T1, human IL12RB1 Fc fusion protein (human, UniProt P42701 24-545)
T1 construct: Purchased from R & D systems; Coated on the ELISA plate; also called human IL-12RB1 receptor subunit; human IL12 receptor; not shown: Fc part of the purchased fusion protein (R & D systems)
Assay: ELISA, receptor-Fc coated on plate, titration of cytokine, detection with anti-human p40 monoclonal antibodies
Procedure: To test whether cynomolgus IL-23 binds to the human IL23 receptor (“IL23R”), and whether cynomolgus IL-12 binds to the human IL12 receptor (“IL12RB1”), human IL23R Fc and human IL12RB1 Fc fusion proteins were purchased (R & D systems) for an ELISA assay. To capture IL23R Fc fusion protein, 500 ng of IL23R—Fc protein in 100 μl of PBS (pH 7.4) was put onto a 96-well Maxisorb plate (NUNC, Rochester, N.Y.) and incubated overnight at 4° C. Likewise, to capture IL12RB1 Fc fusion protein, 500 ng of IL12RB1 Fe protein in 100 μl of PBS (pH 7.4) was put onto a 96-well Maxisorb plate (NUNC, Rochester, N.Y.) and incubated overnight at 4° C. For each, the capture solution was thrown away after overnight incubation and the plate was washed with 200 μl per well of TBST (25 mM Tris-HCl pH 7.5, 150 mM NaCl and 0.01% Tween 20) three times. The plate was then blocked with 200 μl per well of TBST containing 5% nonfat dry milk for 30 minutes at room temperature. After blocking, the plate was washed 3 times with 200 μl per well of TBST at room temperature and a titration of cynoIL23 or cynoIL12 in PBS was added to the plate and incubated at room temperature for 1 hour. […] A 100 μl solution containing 2 NH₂SO₄ was added to stop the reaction and the plate was read on a 96 well SpectroMax plate reader at 450 nm.

B1: cynomolgus IL-12 (single chain: cyno p40 - 2 bovine elastin motifs - cyno p35) (ligand)
chain: IWELKKDVYVVELDWYPDAPGEMVVLTCDTPEEDGITWTLDQSGEVLGSGKTLTIQVKEFGDAGQYTCHKGGEALSHSLLLLHKKEDGIWSTDVLKDQKEPKNKTFLRCEAKNYSGRFTCWWLTTISTDLTFSVKSSRGSSNPQGVTCGAVTLSAERVRGDNKEYEYSVECQEDSACPAAEERLPIEVMVDAIHKLKYENYTSSFFIRDIIKPDPPKNLQLKPLKNSRQVEVSWEYPDTWSTPHSYFSLTFCIQVQGKSKREKKDRIFTDKTSATVICRKNASFSVQAQDRYYSSSWSEWASVPCSVPGVGVPGVGRNLSVATPGPEMFPCLHHSQNLLKAASNTLQKARQILEFYPCTSEEIDHEDITKDKTSTVEACLPLELIKNESCLNSRETSFITNGSCLASRKTSFMMALCLRSIYEDLKMYQVEFKTMNAKLLRDPKRQIFLDQNILGVIDELMQALNFNSETVPQKSSLEEPDFYKTKIKLCILLHAFRIRAVTIDRVMSYLNAS
notes: expressed in 293F cells and purified from the supernatant, about 95% pure; Any vector-derived residues at the junctions or a signal peptide are not described; also called cynoIL12; cyno IL-12
- binding result: binds
